The supplement of paper PMC10567573
± gives the standard deviation.

Experiment: protein stability index of a GFP-peptide fusion (GPS, HEK-293T) (PSI 1-6); higher = more stable
[1] = treatment: DMSO, c terminus: a fixed tail appended
[2] = treatment: MLN4924 1 uM, 8 h, c terminus: a fixed tail appended
[3] = treatment: DMSO, c terminus: native
[4] = treatment: MLN4924 1 uM, 8 h, c terminus: native
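Also: 24-mer peptide tiles fused after GFP, lentivirally expressed, FACS-sorted into six equal bins by GFP/DsRed ratio, decoded by Illumina sequencing, PSI is the read-weighted mean bin number.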

Sequence: NDRDFLTRIFTEDRFAQDSEMKKC [PPEF2]
- protein stability index [1]: 4.61 ± 0.16
- protein stability index [2]: 4.79 ± 0.21

Sequence: FMSPCDKFRAKGRKPCKLMLQVVK [MCOLN1]
- protein stability index [1]: 2.26 ± 0.26
- protein stability index [2]: 2.38 ± 0.24

Sequence: PNQAMVVAAAGDACPPQHVPPKDS [TBC1D10A]
- protein stability index [1]: 5.5 ± 0.14
- protein stability index [2]: 5.37 ± 0.12

Sequence: TYKRFEGLTQRGSIPTYMKAGKL [STK38L]
- protein stability index [3]: 2.26 ± 0.18
- protein stability index [4]: 2.41 ± 0.19

Sequence: SVFLLTLSIAFICCAQVKVSHLL [PHTF1]
- protein stability index [3]: 3.3 ± 0.35
- protein stability index [4]: 3.23 ± 0.53

Sequence: MRAPMLQKQQAPRMDTPPPEERLE [CCDC89]
- protein stability index [1]: 5.21 ± 0.24
- protein stability index [2]: 5.29 ± 0.29

Sequence: MEGLETAEGSNSESSDDDSEEAPS [SDE2]
- protein stability index [1]: 5.51 ± 0.2
- protein stability index [2]: 5.51 ± 0.39

Sequence: KTLYVGNLSRDVTEALILQLFSQI [TIA1]
- protein stability index [1]: 2.6 ± 0.51
- protein stability index [2]: 2.73 ± 0.42

Sequence: YLIMLPFRFTYYTILDIFRFALRF [FAF2]
- protein stability index [1]: 3.33 ± 0.26
- protein stability index [2]: 3.25 ± 0.18

Sequence: STTNSTAAKPAASITSKPATLTTT [ZNF207]
- protein stability index [1]: 4.39 ± 0.25
- protein stability index [2]: 4.41 ± 0.081

Sequence: STVGKLCRLINEDVNEQVMQVLGP [CEP70]
- protein stability index [1]: 3.08 ± 0.19
- protein stability index [2]: 3.2 ± 0.25

Sequence: GCILFEYYRGFTLFQTHENREHLV [CLK3]
- protein stability index [1]: 2.97 ± 0.85
- protein stability index [2]: 2.21 ± 0.69

Sequence: YDIAKHLTYENVERWLKELRDHAD [RAB11A]
- protein stability index [1]: 2.66 ± 0.36
- protein stability index [2]: 2.77 ± 0.23

Sequence: SEDQKRLKQAKELDRERAAANEQL [CHCHD3]
- protein stability index [1]: 5.48 ± 0.17
- protein stability index [2]: 5.57 ± 0.21

Sequence: LSMLLTLKCEMNQMSGEPLDKLNF [ACSBG2]
- protein stability index [1]: 2.83 ± 0.46
- protein stability index [2]: 2.29 ± 0.16

Sequence: VTGYGINGTGDSNDFWRIEVVNRK [POMT2]
- protein stability index [1]: 3.29 ± 0.21
- protein stability index [2]: 3.39 ± 0.17

Sequence: GVGGKRSSKSDADSGFLGLRPTSV [NOP53]
- protein stability index [1]: 4.16 ± 0.44
- protein stability index [2]: 4.03 ± 0.27

Sequence: QLYTAYILENRPPGSLLCTVAASD [PCDHGC5]
- protein stability index [1]: 2.11 ± 0.24
- protein stability index [2]: 2.18 ± 0.26

Sequence: HADCDRRSRIEALELLGASFANDR [FEM1B]
- protein stability index [1]: 3.98 ± 0.31
- protein stability index [2]: 4.17 ± 0.19

Sequence: DLCPPIGRRAATALLWLSCSIALL [GNAS]
- protein stability index [1]: 2.59 ± 0.63
- protein stability index [2]: 2.19 ± 0.28

Sequence: MKKIKKLENDTISKQLTLEQLRRE [CCDC6]
- protein stability index [1]: 3.71 ± 1.1
- protein stability index [2]: 3.84 ± 0.67

Sequence: KRDDYLEWPEYFMAVAFLSAQRSK [DCTD]
- protein stability index [1]: 2.27 ± 0.19
- protein stability index [2]: 2.12 ± 0.35

Sequence: PVRPVSRGCLHSHGLQEGKDLFTQ [CDC25A]
- protein stability index [1]: 3.15 ± 0.33
- protein stability index [2]: 3.21 ± 0.13

Sequence: SDTYRCEERSPSFGEDYYGPSRSR [CLK3]
- protein stability index [1]: 4.47 ± 0.12
- protein stability index [2]: 4.52 ± 0.2

Sequence: KQEQSIISEYEKSLQFDEKCLSIM [RPAIN]
- protein stability index [1]: 3.67 ± 0.12
- protein stability index [2]: 3.69 ± 0.23

Sequence: SGSRPRKPPPRKHTRSWAVLKLLL [LRRC59]
- protein stability index [1]: 2.39 ± 0.37
- protein stability index [2]: 2.31 ± 0.28

Sequence: SQSPSVSQLSVLSLSGVMLTDVSP [PRAME]
- protein stability index [1]: 3 ± 0.49
- protein stability index [2]: 3 ± 0.33

Sequence: SKQSPPMASSPIQPRKGGADWLGL [FBF1]
- protein stability index [1]: 3.23 ± 0.47
- protein stability index [2]: 3.48 ± 0.42

Sequence: PIGKISKNKKKKLKKKQKRQAELL [SRPK2]
- protein stability index [1]: 4.37 ± 0.17

Sequence: LSSYISINSDTGVLYALRSFDYEQ [PCDHGA10]
- protein stability index [1]: 2.12 ± 0.23
- protein stability index [2]: 2.27 ± 0.092

Sequence: MQVHKETIDAVPNAIPGRTDIELE [ZNF207]
- protein stability index [1]: 4.97 ± 0.15
- protein stability index [2]: 5.17 ± 0.18

Sequence: HVIGEDAACIAYIRLTQYIDGQGR [CAMK2B]
- protein stability index [1]: 2.15 ± 0.21
- protein stability index [2]: 2.08 ± 0.2

Sequence: TGPPCDRQWTVSDWGPCSGSCGQG [ADAMTSL2]
- protein stability index [1]: 3.67 ± 0.45
- protein stability index [2]: 3.51 ± 0.24

Sequence: TEQGFGEDLEDLGAVAPPVSGDLT [NFE2L1]
- protein stability index [1]: 5.388 ± 0.027
- protein stability index [2]: 5.26 ± 0.55

Sequence: PAATEAYGSGDTPGGPCDSTLGGD [TBX6]
- protein stability index [1]: 5.46 ± 0.25
- protein stability index [2]: 5.3 ± 0.55

Sequence: HFCVDDTKLLSGSYDCTVKLWDPV [WDR88]
- protein stability index [1]: 2.65 ± 0.24
- protein stability index [2]: 2.58 ± 0.23

Sequence: QVTMRGLLSCLSKSNNRLKSLSIQ [FBXO39]
- protein stability index [1]: 2.21 ± 0.11
- protein stability index [2]: 2.07 ± 0.21

Sequence: PLMVKGFRDAAEEGGTAVTGGQTV [SEPHS2]
- protein stability index [1]: 5.05 ± 0.3
- protein stability index [2]: 5.16 ± 0.13

Sequence: NTLEGKKPGNNEGSGAPSPLSKSS [SNAP91]
- protein stability index [1]: 5.41 ± 0.23
- protein stability index [2]: 5.35 ± 0.28

Sequence: LDPMKNVTCENGLPAVVSCVPGQV [LOXL2]
- protein stability index [2]: 4.36 ± 0.06

Sequence: PPPLGPVVPVLVFPPDLVFRADQR [MOSPD3]
- protein stability index [1]: 3.25 ± 0.13
- protein stability index [2]: 3.22 ± 0.32

Sequence: LTQWKDSLVSLVLYNMDLSDDHIR [ZER1]
- protein stability index [1]: 2.52 ± 0.32
- protein stability index [2]: 2.31 ± 0.097

Sequence: AEDHLDGCCKRRYLQKIEEFAEMV [KCNG1]
- protein stability index [1]: 3.06 ± 0.14
- protein stability index [2]: 2.96 ± 0.1

Sequence: TTSDIPHMLNQVESKVKDILSKVQ [FAM98B]
- protein stability index [1]: 2.48 ± 0.38
- protein stability index [2]: 2.32 ± 0.32

Sequence: KKRKRQEKIDKLEQDMERRKADFK [ZC3H15]
- protein stability index [1]: 4.7 ± 0.4
- protein stability index [2]: 4.77 ± 0.1

Sequence: LSALLRATPGEYSVNICGMNEHPV [SPAG8]
- protein stability index [1]: 2.27 ± 0.27
- protein stability index [2]: 2.42 ± 0.16

Sequence: ACGDFFTACLTDRGIIMTFGSGSN [NEK8]
- protein stability index [1]: 2.66 ± 0.83
- protein stability index [2]: 2.78 ± 0.64

Sequence: AFKAAALIQRWYRRYVARLEMRRR [PPEF2]
- protein stability index [1]: 3.55 ± 0.57
- protein stability index [2]: 4.15 ± 0.59

Sequence: PPPDAAATAASSSASSPASVGDPC [SLC25A25]
- protein stability index [1]: 5.39 ± 0.14
- protein stability index [2]: 5.58 ± 0.13

Sequence: LISNASDALDKIRYESLTDPSKLD [HSP90AB1]
- protein stability index [1]: 3.75 ± 0.34
- protein stability index [2]: 3.85 ± 0.41

Sequence: VVLKLFLSFSGSDVQNKLKESAQC [SNX8]
- protein stability index [1]: 2.8 ± 0.76
- protein stability index [2]: 2.92 ± 0.52

Sequence: KIMIIICCVILGIVIASTVGGIFA [STX1A]
- protein stability index [1]: 2.04 ± 0.38
- protein stability index [2]: 2.23 ± 0.41

Sequence: NLRAAGAEALGKLLQQNKSIQSLT [LRRC45]
- protein stability index [1]: 3.26 ± 0.19
- protein stability index [2]: 3.33 ± 0.19

Sequence: GFIKKFVLCPECENPETDLHVNPK [EIF5]
- protein stability index [1]: 3.09 ± 0.38
- protein stability index [2]: 3.29 ± 0.05

Sequence: FYRYKMPRLIAKVEGKGNGIKTVI [EIF5]
- protein stability index [1]: 2.28 ± 0.45
- protein stability index [2]: 2.26 ± 0.23

Sequence: LHSACGLSKDHQEVETEGPESADT [TOR1AIP2]
- protein stability index [1]: 5.36 ± 0.26
- protein stability index [2]: 5.53 ± 0.16

Sequence: YSNLLVRDFRPTDQEEIKTLERYM [TENT5C]
- protein stability index [1]: 3.08 ± 0.22
- protein stability index [2]: 3.35 ± 0.36

Sequence: QGQPVVNRPLSLKDQQTFARSVGL [TRADD]
- protein stability index [1]: 3.67 ± 0.35
- protein stability index [2]: 3.9 ± 0.12

Sequence: CPGKGAWSIPWKWLFGATAVALGG [FKBP8]
- protein stability index [1]: 2.42 ± 0.3
- protein stability index [2]: 2.37 ± 0.25

Sequence: RASYSDGKLKAPPKPCAGNQGTQI [MLH1]
- protein stability index [1]: 4.05 ± 0.53
- protein stability index [2]: 4.17 ± 0.14

Sequence: GSPDDSHPKDGPSPGGTLMDLSER [DLC1]
- protein stability index [1]: 5.54 ± 0.32
- protein stability index [2]: 5.48 ± 0.28

Sequence: SASECMQDFNTMFTNCYIYNKPTD [BRD3]
- protein stability index [1]: 3.1 ± 0.23
- protein stability index [2]: 3.08 ± 0.45

Sequence: APRPGPPAGTPPPTARHFQEHPRQ [MOSPD3]
- protein stability index [1]: 4.99 ± 0.36
- protein stability index [2]: 4.86 ± 0.35

Sequence: YRAALRSCSLVLEHQPDNIKALFR [FKBP8]
- protein stability index [1]: 2.17 ± 0.25
- protein stability index [2]: 2.27 ± 0.037

Sequence: RPMHHEDFKEDLKKFRTKSRTWAG [CDC25A]
- protein stability index [1]: 3.31 ± 0.22
- protein stability index [2]: 3.61 ± 0.36
